Data on one molecule can be found in patent publication US20240294624A1, “ANTI-ERYTHROPOIETIN ANTIBODY” (ANDREMACON S.R.L., priority 2021, published 2024).

One data set deals with primary GECs. The experiment in a line: MTT cell viability assay. It is filed as cell-based, human. The conditions noted are these: 96 hours, anti-EPO (C4) 6 μg/ml, TMZ 100 μM, FTY720 100 nM. From the text: B. Primary glioblastoma endothelial cells (GECs).
A general note: Formazan colour is commonly taken as a measure of viable cells.

Data set [1] has as its system K562. In words: MTT cell viability assay. The conditions noted are these: 96 hours, 6 μg/ml. It is filed as cell-based, human. From the text: H. Myelogenous leukemia cell line (K562); chronic myeloid leukemia cells. Circulating […] levels are reliably higher in myelodysplastic syndromes than in healthy people, with a negative predictive role;
The next data set deals with A2780. In words: Caspase Glo 3/7 assay. The data set is classed as cell-based, human. As for the experimental part: (§1) Furthermore, cellular models were treated the above-mentioned pharmacological drugs and apoptotic effect was evaluated by caspase activity.
(§2) Data are expressed as the mean±standard deviation of at least 3 experiments in triplicate. *P<0.05 versus CTR for all treatments tested.

The subject of the next data set is A549. The experiment in a line: Caspase Glo 3/7 assay. It is filed as cell-based, human. As for the experimental part:
as §1, §2

In the next data set the test system is DLD1. In words: Caspase Glo 3/7 assay. It is filed as cell-based, human. As for the experimental part: as §1, §2
For a further data set, the system named is GBM-CSCs. In words: Caspase Glo 3/7 assay. The data set is classed as cell-based, human. As for the experimental part: as §1, §2
Another data set concerns GECs. In words: Caspase Glo 3/7 assay. The data set is classed as cell-based, human. As for the experimental part: as §1, §2
The subject of a further data set is GSCs. In words: Caspase Glo 3/7 assay. It is filed as cell-based, human. As for the experimental part:
as §1, §2

The test system of data set [2] is K562. The experiment in a line: Caspase Glo 3/7 assay. The data set is classed as cell-based, human. As for the experimental part:
as §1, §2

The test system of a further data set is LNCAP. In words: Caspase Glo 3/7 assay. The data set is classed as cell-based, human. As for the experimental part:
as §1, §2

Another data set concerns MCF-7. In words: Caspase Glo 3/7 assay. The data set is classed as cell-based, human. As for the experimental part: as §1, §2
In a further data set the test system is PC-3. The experiment in a line: Caspase Glo 3/7 assay. It is filed as cell-based, human. As for the experimental part:
as §1, §2

A further data set has as its system SHSY-5Y. The experiment in a line: Caspase Glo 3/7 assay. The data set is classed as cell-based, human. As for the experimental part:
as §1, §2

For data set [3], the system named is anaplastic astrocytoma cancer stem cells. The experiment in a line: Caspase Glo 3/7 assay. It is filed as cell-based, human. As for the experimental part: as §1, §2
The test system of a further data set is N9 microglia cells. The experiment in a line: Microglia viability, trypan blue. It is filed as cell-based, murine. The conditions noted are these: 48 hours of culture. As for the experimental part: N9 cells were cultured in Iscove's Modified Dulbecco's MEM, IMDM containing streptomycin/1× penicillin and 2 mM L-glutamine, supplemented with FBS (fetal bovine serum) at 5%. The cells were plated at a concentration of 1.5×10^4 cells/cm2 and kept in a thermostatic incubator at 37° C., with 5% CO2, for 24 hours. The next day, the cells were exposed to different treatments for 48 hours. At the end of the treatments, cell viability was assessed by staining with trypan blue. The microglia was maintained in a basal culture medium and then activated with lipopolysaccharide (LPS), a molecule present on the membrane of the Gram-negative bacteria. Furthermore, to study the role of the product “anti-EPO (C4)” in the inhibition of neuroinflammation and then in the inhibition of the activation of microglia, the antibody according to the scheme below was administered, in association and not with LPS, to activate microglia. […]
N9 cells were cultured in Iscove's Modified Dulbecco's MEM, IMDM containing streptomycin/1× penicillin and 2 mM L-glutamine, supplemented with FBS (fetal bovine serum) at 5%. […] At the end of the treatments, cell viability and proliferation were assessed by staining with trypan blue and observed under the microscope for counting. […]

A further data set has as its system S-ECs. The experiment in a line: Tube formation assay on Matrigel. The settings on record: 48 h. It is filed as cell-based, human. As for the experimental part: S-ECs (1×10^4) were plated on 10 μL of Matrigel in BM, as a Control Condition (CTR, FIG. 19A) or in media containing the anti-EPO (C4) (FIG. 19B), FTY720 (FIG. 19C), and anti-EPO (C4)+FTY720 (FIG. 19D) treatments, as reported above. S-ECs were incubated at 37° C., 5% C02, 5% 02. After 48 h, tube-like structure formation was evaluated by phase-contrast microscopy. […] Data are expressed as the mean±standard deviation of at least 3 experiments in triplicate. * P<0.05 versus CTR for treatments tested.

Data set [4] in a line: Renal and liver toxicity, serum biochemistry. The data set is classed as in vivo. The conditions noted are these: mice; 11 and 18 days after treatment starting. As for the experimental part:
Serum for Biochemistry were collected at least 400 μL of blood and putted it in an eppendorf tube with or without (plasma/serum) anticoagulant. The samples were left at environment temperature for at least 30′ minutes, then centrifuged at 500 g for 10 min, the supernatants were collected, being careful not to take the precipitate and analyzed for Biochemical tests. […] (A) Urea; (B) Creatinine; (C) Albumine, (D) AST; aspartate aminotransferase; (E) ALT: alanine aminotransferase. (FIG. 29)

The subject of the next data set is HOC84 stem cells. The conditions noted are these: naturally resistant to carboplatin, 96 h, CPT 40 μg/mL.

Description for HOC84 stem cells: HOC84, which are naturally resistant to carboplatin (CPT), were cultured for 96 h in basal condition supplemented with 40 μg/mL of CPT. Cell viability was assessed by 3-(4,5-Dimethylthiazol-2-yl)-2,5-Diphenyl-tetrazoliumBromide (MTT) assay, as a function of redox potential (FIG. 24). […] Then, culture media were replaced with fresh media containing the specific treatments, or in BM as a control condition (CTR).
Test was performed in triplicate after 96 h of treatment, by replacing culture media with 100 μL of fresh media added with 10 μL of MTT 5 mg/ml in D-PBS. After 4 h of incubation, media were removed and cells were lysed with 100 μL of 2-propanol/formic acid (95:5, by vol) for 10 min.

B1: anti-EPO (C4): isolated anti-Erythropoietin monoclonal antibody, VL SEQ ID NO:6, VH SEQ ID NO:14, hybridoma DSM ACC 3370 (antibody, listed as Homo sapiens, V domains shown)
VH: EVKLQESGGGLVQPGGSLKLSCAASGFTFSTYTMSWVRQTPEKRLEWVAYISNGGDRTYYPDTVKGRFTISRDDAKNTLFLQMSSLKSEDTAMYYCARHNITTVPFTMDYWGQGTSVTVSS
VL: DIVLTQSPASLAVSLGQRATISCRASESVDYYGTGLMQWYQQRPGQPPKLLIYGASNVGSGVPARFSGSGSGTDFSLNIHPVEGDDIAMYFCQQTRKVPSTFGGGTKLEIK
modifications: VH amino acid sequence; VL amino acid sequence
On to B1, for which the “cells initially seeded dead” value in the data set with primary GECs is roughly 70%. For the same molecule, the “cells initially plated dead” value with K562 [1] was 62%. The “increment of apoptosis (caspase 3/7 activation)” value stood at 234% in the data set on A2780; 200% in the data set on A549; 217% in the data set with DLD1; 210% with GBM-CSCs; 220% with GECs; 200% in the data set with GSCs. Moreover, the “increment of apoptosis (caspase 3/7 activation)” value in the data set with K562 [2] was determined as 180%; in the data set on LNCAP, 220%; in the data set with MCF-7 it was 218%; in the data set on PC-3, 243%; in the data set on SHSY-5Y, 200%; in [3], 205%. Also, the viability result in the data set with N9 microglia cells was “higher than 85%”. In the data set with S-ECs, the “decrease of total length of formed tubes” value is on record as 65%. The “formation of tubular-like structures” value in the data set with S-ECs is recorded as “able to block the formation of tubular-like structures”. Moreover, the “serum biochemistry (urea, creatinine, albumine, AST, ALT)” value in data set [4] was “no significant variations”. In the data set with HOC84 stem cells, this molecule showed a mortality of 66%.

What is called mortality is the share of the test organisms that died. Read a low mortality as a weak lethal effect.
